Results as given in patent US20150140014A1.

Legend:
[1] = molecular target: c-Met on human cancer cells (MKN45 gastric cancer cells; NCI-H441 lung cancer cells) (human) (UniProt P08581); experiment: cell-based or functional assay
[2] = molecular target: human c-Met protein (human) (UniProt P08581); experiment: SPR (Biacore), antibody immobilized on CM5 chip, human c-Met protein 0.39-100 nM injected
Chain of human c-Met protein (human) (P08581 25-932 limits assumed): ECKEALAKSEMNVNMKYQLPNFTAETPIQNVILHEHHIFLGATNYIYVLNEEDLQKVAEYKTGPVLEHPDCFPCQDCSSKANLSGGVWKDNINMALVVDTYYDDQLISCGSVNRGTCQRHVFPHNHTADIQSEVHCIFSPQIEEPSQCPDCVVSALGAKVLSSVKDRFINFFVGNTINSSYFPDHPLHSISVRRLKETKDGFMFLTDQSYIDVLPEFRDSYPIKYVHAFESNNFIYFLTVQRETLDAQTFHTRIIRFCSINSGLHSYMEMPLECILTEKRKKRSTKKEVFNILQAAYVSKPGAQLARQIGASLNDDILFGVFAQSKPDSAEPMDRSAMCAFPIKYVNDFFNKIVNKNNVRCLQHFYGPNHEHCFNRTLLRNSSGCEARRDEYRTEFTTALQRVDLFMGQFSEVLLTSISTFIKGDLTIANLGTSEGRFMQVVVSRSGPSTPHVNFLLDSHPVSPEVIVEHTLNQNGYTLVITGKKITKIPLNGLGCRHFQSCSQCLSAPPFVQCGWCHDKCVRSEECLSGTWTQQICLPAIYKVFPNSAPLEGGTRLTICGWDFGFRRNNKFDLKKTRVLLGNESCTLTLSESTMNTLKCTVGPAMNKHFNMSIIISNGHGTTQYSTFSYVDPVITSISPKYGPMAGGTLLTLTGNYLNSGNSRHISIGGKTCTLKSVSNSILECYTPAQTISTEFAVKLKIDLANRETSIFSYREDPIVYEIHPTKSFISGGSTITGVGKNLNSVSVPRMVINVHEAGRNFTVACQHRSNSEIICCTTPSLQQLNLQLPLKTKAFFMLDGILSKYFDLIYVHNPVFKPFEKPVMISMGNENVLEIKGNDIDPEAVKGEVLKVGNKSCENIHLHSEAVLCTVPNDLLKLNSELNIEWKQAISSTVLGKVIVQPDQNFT

Chain of c-Met on human cancer cells (MKN45 gastric cancer cells; NCI-H441 lung cancer cells) (human) (P08581 25-1390): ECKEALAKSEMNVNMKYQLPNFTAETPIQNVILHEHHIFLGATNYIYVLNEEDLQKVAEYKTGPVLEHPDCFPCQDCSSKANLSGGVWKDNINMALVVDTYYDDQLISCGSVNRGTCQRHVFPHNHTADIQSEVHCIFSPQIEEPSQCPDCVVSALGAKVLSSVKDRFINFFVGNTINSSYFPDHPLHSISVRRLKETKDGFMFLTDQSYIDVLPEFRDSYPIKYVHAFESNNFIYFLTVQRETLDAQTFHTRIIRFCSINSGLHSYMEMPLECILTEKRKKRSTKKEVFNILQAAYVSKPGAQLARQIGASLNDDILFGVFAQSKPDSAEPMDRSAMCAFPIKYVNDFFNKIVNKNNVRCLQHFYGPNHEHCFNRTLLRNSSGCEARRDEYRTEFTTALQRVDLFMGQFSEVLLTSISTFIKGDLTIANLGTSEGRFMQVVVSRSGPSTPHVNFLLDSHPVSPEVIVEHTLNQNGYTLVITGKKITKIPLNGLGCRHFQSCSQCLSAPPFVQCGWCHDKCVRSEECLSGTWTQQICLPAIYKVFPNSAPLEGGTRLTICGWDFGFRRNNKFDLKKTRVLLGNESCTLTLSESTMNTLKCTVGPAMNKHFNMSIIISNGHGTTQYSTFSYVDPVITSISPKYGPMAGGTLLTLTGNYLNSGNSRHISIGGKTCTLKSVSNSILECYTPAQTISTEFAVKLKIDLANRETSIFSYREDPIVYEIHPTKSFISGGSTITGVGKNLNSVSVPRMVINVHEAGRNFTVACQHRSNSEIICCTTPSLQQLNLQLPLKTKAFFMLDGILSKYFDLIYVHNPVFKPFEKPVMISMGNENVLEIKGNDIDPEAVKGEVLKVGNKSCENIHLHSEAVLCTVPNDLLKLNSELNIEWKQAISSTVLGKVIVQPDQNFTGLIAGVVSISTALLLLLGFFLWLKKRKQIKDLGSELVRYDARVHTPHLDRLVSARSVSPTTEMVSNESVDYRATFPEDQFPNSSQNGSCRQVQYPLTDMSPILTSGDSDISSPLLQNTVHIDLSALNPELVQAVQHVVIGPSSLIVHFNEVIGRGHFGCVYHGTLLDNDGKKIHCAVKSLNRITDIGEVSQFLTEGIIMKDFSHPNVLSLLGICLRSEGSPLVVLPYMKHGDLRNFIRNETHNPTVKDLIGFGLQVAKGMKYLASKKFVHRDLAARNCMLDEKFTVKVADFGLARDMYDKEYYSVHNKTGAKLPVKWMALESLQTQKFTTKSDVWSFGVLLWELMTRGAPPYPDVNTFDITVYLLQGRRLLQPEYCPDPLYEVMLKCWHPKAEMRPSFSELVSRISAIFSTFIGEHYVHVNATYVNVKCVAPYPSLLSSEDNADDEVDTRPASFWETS

BrdU assay on NCI-H441 cells (agonism), 10 ug/ml [1]: 25%
degree of degradation of c-Met (total c-Met ELISA, MKN45 cells, 5 ug/ml, 24 hours) [1]: 37%
Kd [2]: 0.06 nM
koff [2]: 4.53e-05 s⁻¹
kon [2]: 739000 M⁻¹ s⁻¹
B1: huAbF46-H4-A1 (antibody, from a related filing, V domains shown)
VH: EVQLVESGGGLVQPGGSLRLSCAASGFTFTDYYMSWVRQAPGKGLEWLGFIRNKANGYTTEYSASVKGRFTISRDNSKNTLYLQMNSLRAEDTAVYYCARDNWFAYWGQGTLVTVSS
VL: DIQMTQSPSSLSASVGDRVTITCKSSQSLLASGNQNNYLAWHQQKPGKAPKMLIIWASTRVSGVPSRFSGSGSGTDFTLTISSLQPEDFATYYCQQSYSRPYTFGQGTKVEIKR
